The supplement of paper PMC7877785
± gives the uncertainty stated by the source.

Experiment: self-splicing fitness, log relative to wild type (ln ratio); higher = more splicing; Tetrahymena group I intron in knt gene, E. coli kanamycin selection, DiMSum; sequences stand for … in CUCUCU…GGAGGGAAAAGUUAUCAGGCAUGCACCUGGUAGCUAGUCUUUAAACCAAUAGAUUGCAUCGGUUUAAAAGGCAAGACCGUCAAAUUGCGGGAAAGGGGUCAACAGCCGUUCAGUACCAAGUCUCAGGGGAAACUUUGAGAUGGCCUUGCAAAGGGUAUGGUAAUAAGCUGACGGACAUGGUCCUAACCACGCAGCCAAGUCCUAAGUCAACAGAUCUUCUGUUGAUAUGGAUGCAGUUCACAGACUAAAUGUCGGUCGGGGAAGAUGUAUUCUUCUCAUAAGAUAUAGUCGGACCUCUCCUUAAUGGGAGCUAGCGGAUGAAGUGAUGCAACACUGGAGCCGCUGGGAACUAAUUUGUAUGCGAAAGUAUAUUGAUUAGUUUUGGAGUACUCGUGGUCG
How it was run: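 Colonies from six replicate transformations of E. coli BL21(DE3) were pooled and amplicon-sequenced on an Illumina HiSeq 2500. The library placed an intron with all eight P1ex-region nucleotides randomised inside the knt kanamycin-resistance gene on pET-22b(+), and cells grew overnight at 37°C or 30°C on LB agar with or without 25 μg/mL kanamycin (plus 100 μg/mL carbenicillin, 50 μM IPTG, 0.2% rhamnose). Fitness is the DiMSum error-weighted combination of wild-type-normalised replicate fold changes, kanamycin versus none.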

Row | Sequence | self-splicing fitness (ln) (30 °C) | self-splicing fitness (ln) (37 °C)
1 | AGUCAGCAAUAUUACGCGUC | -2.65 ± 0.23 | -0.977 ± 0.23
2 | AGUCAGCAAUAUUACGCUGA | -2.55 ± 0.19 | -2.24 ± 0.22
3 | AGUCAGCAAUAUUACGGAUC | -0.312 ± 0.11 | -0.438 ± 0.2
4 | AGUCAGCAAUAUUACGGAUU | -2.25 ± 0.14 | -1.42 ± 0.11
5 | AGUCAGCAAUAUUACGGCUA | -0.605 ± 0.14 | -0.512 ± 0.13
6 | AGUCAGCAAUAUUACGGGCC | -2.98 ± 0.28 | -2.4 ± 0.35
7 | AGUCAGCAAUAUUACGGGUG | -1.82 ± 0.084 | -0.948 ± 0.12
8 | AGUCAGCAAUAUUACGGUCG | 0.451 ± 0.089 | 0.0344 ± 0.12
9 | AGUCAGCAAUAUUACGGUGU | -1.32 ± 0.075 | -0.39 ± 0.1
10 | AGUCAGCAAUAUUACGGUUG | -2.76 ± 0.12 | -2.8 ± 0.17
11 | AGUCAGCAAUAUUACGGUUU | -0.329 ± 0.065 | -0.197 ± 0.08
12 | AGUCAGCAAUAUUACGUGGG | -4.29 ± 0.21 | -2.44 ± 0.14
13 | AGUCAGCAAUAUUACGUUAA | -3.47 ± 0.18 | -1.77 ± 0.12
14 | AGUCAGCAAUAUUACGUUGU | -3.18 ± 0.12 | -2.87 ± 0.18
15 | AGUGAGCAAUAUUACGAACA | -1.77 ± 0.18 | -0.734 ± 0.15
16 | AGUGAGCAAUAUUACGAACU | -2.3 ± 0.18 | -2.58 ± 0.33
17 | AGUGAGCAAUAUUACGAAUC | – | -1.49 ± 0.38
18 | AGUGAGCAAUAUUACGACCA | -1.79 ± 0.26 | -1.52 ± 0.48
19 | AGUGAGCAAUAUUACGACGA | -2.44 ± 0.21 | -1.13 ± 0.24
20 | AGUGAGCAAUAUUACGAGCG | -0.459 ± 0.1 | -0.0795 ± 0.13
21 | AGUGAGCAAUAUUACGAGGC | -3.83 ± 0.33 | -1.45 ± 0.17
22 | AGUGAGCAAUAUUACGAUUU | -2.6 ± 0.24 | -1.12 ± 0.22
23 | AGUGAGCAAUAUUACGCACG | -1.58 ± 0.18 | -0.941 ± 0.17
24 | AGUGAGCAAUAUUACGCGGA | -2.28 ± 0.3 | -1.99 ± 0.23
25 | AGUGAGCAAUAUUACGCGGG | – | -2.1 ± 0.37

Row | Sequence | self-splicing fitness (ln) (30 °C) | self-splicing fitness (ln) (37 °C)
26 | AGUGAGCAAUAUUACGCUGC | -2.29 ± 0.46 | -2.44 ± 0.44
27 | AGUGAGCAAUAUUACGCUGU | -3.12 ± 0.25 | -1.64 ± 0.18
28 | AGUGAGCAAUAUUACGGAUU | -3.48 ± 0.26 | -1.28 ± 0.21
29 | AGUGAGCAAUAUUACGGGAC | -4.1 ± 0.47 | –
30 | AGUGAGCAAUAUUACGGGGA | -3.7 ± 0.25 | -2 ± 0.21
31 | AGUGAGCAAUAUUACGGGUC | -3.17 ± 0.28 | -3.06 ± 0.43
32 | AGUGAGCAAUAUUACGGUUA | -2.29 ± 0.23 | -2.48 ± 0.2
33 | AGUGAGCAAUAUUACGGUUC | -2.21 ± 0.26 | -1.7 ± 0.38
34 | AGUGAGCAAUAUUACGUCCC | 0.506 ± 0.48 | 0.283 ± 0.36
35 | AGUGAGCAAUAUUACGUCUA | -2.45 ± 0.27 | -1.41 ± 0.2
36 | AGUGAGCAAUAUUACGUCUC | – | -2.46 ± 0.36
37 | AGUGAGCAAUAUUACGUGAC | -2.02 ± 0.35 | -2.39 ± 0.32
38 | AGUUAGCAAUAUUACGACCA | -0.921 ± 0.093 | -0.258 ± 0.13
39 | AGUUAGCAAUAUUACGAGCA | -0.518 ± 0.11 | -0.169 ± 0.12
40 | AGUUAGCAAUAUUACGAUAA | -2.31 ± 0.21 | -0.658 ± 0.22
41 | AGUUAGCAAUAUUACGCACU | -1.6 ± 0.26 | -1.09 ± 0.23
42 | AGUUAGCAAUAUUACGCAUG | -1.91 ± 0.078 | -1.15 ± 0.1
43 | AGUUAGCAAUAUUACGCGUG | -2.38 ± 0.2 | -0.946 ± 0.17
44 | AGUUAGCAAUAUUACGCUGG | -3.07 ± 0.22 | –
45 | AGUUAGCAAUAUUACGGACC | -0.357 ± 0.11 | -0.279 ± 0.16
46 | AGUUAGCAAUAUUACGGAGU | -3.29 ± 0.3 | -1.3 ± 0.2
47 | AGUUAGCAAUAUUACGGAUC | -1.01 ± 0.13 | -1.09 ± 0.18
48 | AGUUAGCAAUAUUACGGCAC | -1.47 ± 0.16 | -1.82 ± 0.25
49 | AGUUAGCAAUAUUACGGCCA | -0.965 ± 0.16 | 0.403 ± 0.29
50 | AGUUAGCAAUAUUACGGCCU | -0.544 ± 0.11 | 0.22 ± 0.13

Row | Sequence | self-splicing fitness (ln) (30 °C) | self-splicing fitness (ln) (37 °C)
51 | AGUUAGCAAUAUUACGGUAU | -2.69 ± 0.13 | -1.34 ± 0.13
52 | AGUUAGCAAUAUUACGGUCC | -0.223 ± 0.14 | -0.259 ± 0.19
53 | AUAAAGCAAUAUUACGAAAA | -1.4 ± 0.091 | -0.609 ± 0.11
54 | AUAAAGCAAUAUUACGAGGG | -3.4 ± 0.15 | -1.64 ± 0.12
55 | AUAAAGCAAUAUUACGAUCG | -0.0352 ± 0.072 | 0.19 ± 0.097
56 | AUAAAGCAAUAUUACGCUAA | -0.787 ± 0.11 | -0.736 ± 0.14
57 | AUAAAGCAAUAUUACGCUAU | -1.28 ± 0.089 | -0.692 ± 0.098
58 | AUAAAGCAAUAUUACGCUCA | 0.119 ± 0.11 | -0.112 ± 0.12
59 | AUAAAGCAAUAUUACGGACU | -0.0332 ± 0.073 | 0.654 ± 0.092
60 | AUAAAGCAAUAUUACGGAGA | -3.18 ± 0.19 | -1.86 ± 0.19
61 | AUAAAGCAAUAUUACGGGUA | -0.752 ± 0.082 | -1.06 ± 0.1
62 | AUAAAGCAAUAUUACGGUCA | 0.0241 ± 0.071 | 0.459 ± 0.1
63 | AUAAAGCAAUAUUACGUAGU | -1.9 ± 0.12 | -0.946 ± 0.17
64 | AUAAAGCAAUAUUACGUAUG | -2.13 ± 0.097 | -1.34 ± 0.12
65 | AUAAAGCAAUAUUACGUCAC | -3.46 ± 0.14 | -3.09 ± 0.2
66 | AUAAAGCAAUAUUACGUCCU | 0.13 ± 0.054 | 0.82 ± 0.079
67 | AUACAGCAAUAUUACGAGCU | -1.51 ± 0.1 | -1.26 ± 0.11
68 | AUACAGCAAUAUUACGAUCA | -0.716 ± 0.086 | -0.37 ± 0.093
69 | AUACAGCAAUAUUACGAUGG | -3.04 ± 0.18 | -2.35 ± 0.23
70 | AUACAGCAAUAUUACGAUUG | -3.14 ± 0.14 | -2.59 ± 0.2
71 | AUACAGCAAUAUUACGCAAU | -1.93 ± 0.15 | -1.02 ± 0.16
72 | AUACAGCAAUAUUACGCACU | -0.66 ± 0.11 | 0.0538 ± 0.14
73 | AUACAGCAAUAUUACGCAUU | -1.85 ± 0.088 | -1.4 ± 0.11
74 | AUACAGCAAUAUUACGCGAA | -1.42 ± 0.12 | -0.301 ± 0.12
75 | AUACAGCAAUAUUACGCUGA | -2.14 ± 0.099 | -0.86 ± 0.1

Row | Sequence | self-splicing fitness (ln) (30 °C) | self-splicing fitness (ln) (37 °C)
76 | AUACAGCAAUAUUACGGCAC | -1.18 ± 0.087 | -0.127 ± 0.12
77 | AUACAGCAAUAUUACGGUGG | -2.95 ± 0.11 | -2.92 ± 0.15
78 | AUACAGCAAUAUUACGUACC | -0.828 ± 0.11 | -0.283 ± 0.15
79 | AUACAGCAAUAUUACGUAGC | -3.19 ± 0.21 | -2.45 ± 0.23
80 | AUACAGCAAUAUUACGUCAC | -3.13 ± 0.16 | -2.1 ± 0.17
81 | AUACAGCAAUAUUACGUCUA | -0.606 ± 0.078 | -0.238 ± 0.079
82 | AUACAGCAAUAUUACGUCUC | -2.98 ± 0.15 | -2.27 ± 0.14
83 | AUACAGCAAUAUUACGUCUU | -0.218 ± 0.059 | 0.336 ± 0.074
84 | AUAGAGCAAUAUUACGACAG | -2.6 ± 0.18 | -0.985 ± 0.2
85 | AUAGAGCAAUAUUACGACAU | 0.275 ± 0.013 | 0.437 ± 0.033
86 | AUAGAGCAAUAUUACGACCU | -1.41 ± 0.23 | -0.988 ± 0.21
87 | AUAGAGCAAUAUUACGACUA | -0.25 ± 0.073 | 0.211 ± 0.088
88 | AUAGAGCAAUAUUACGAGCU | -1.71 ± 0.18 | -1.15 ± 0.16
89 | AUAGAGCAAUAUUACGAGGA | -2.21 ± 0.23 | -2.16 ± 0.27
90 | AUAGAGCAAUAUUACGAUGC | – | -1.36 ± 0.32
91 | AUAGAGCAAUAUUACGCACC | -1.1 ± 0.35 | -1.41 ± 0.44
92 | AUAGAGCAAUAUUACGCAGG | -3.06 ± 0.2 | -1.86 ± 0.23
93 | AUAGAGCAAUAUUACGCGAU | -2.28 ± 0.35 | -2 ± 0.26
94 | AUAGAGCAAUAUUACGCGGU | -4.29 ± 0.35 | -1.64 ± 0.24
95 | AUAGAGCAAUAUUACGCUGG | -1.97 ± 0.14 | -1.62 ± 0.2
96 | AUAGAGCAAUAUUACGCUGU | -0.963 ± 0.11 | 0.0295 ± 0.14
97 | AUAGAGCAAUAUUACGGAAG | -2.48 ± 0.18 | -1.45 ± 0.21
